± gives the standard deviation of the averaged measurements.
System: ATP
Assay: switch fluorescence ratio, 500 uM ATP over buffer (Cy3 cluster intensity, sum of 5 cycles each) (fold (ratio)); higher = stronger signal-on switching upon ATP binding; sequences stand for … in TCGTCGGCAGCGTCAGATGTGTATAAGAGACAGTTTTTTTTTTTTTTTTTTTTTTTTT…TC
Details: aptamer strand: ATP DNA aptamer (quencher-CACCTGGGGGAGTATTGCGGAGGAAGG + anchor), 100 nM annealed; ATP concentration: 500 uM
Summary of the method: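 Imaging in selection buffer was followed by imaging after 15 min with 500 uM ATP at 22 °C, for Cy3-labelled switching-strand clusters annealed to 100 nM quencher-labelled ATP aptamer on a modified Illumina MiSeq flow-cell. Five of these buffer/ATP cycles ran, separated by NaOH stripping and re-annealing. The fluorescence ratio per cluster is summed target-cycle over summed buffer-cycle Cy3 intensity, averaged per switch-domain sequence; clusters outside 100-1000 RFU were removed.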
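Further: ATP exposure 15 min at 22 °C before imaging.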

Sequence	switch fluorescence ratio
CAGTCTGTGT	0.9921 ± 0.0075
CAGTGAGGTA	0.984 ± 0.023
CAGTGATTC	1.26 ± 0.35
CAGTGGAGTG	0.98561 ± 8.7e-05
CAGTGGGGAC	1.03 ± 0.055
CAGTGGGGCT	1.016 ± 0.0057
CAGTGGTCGG	1 ± 0.038
CAGTGTACGG	1.04 ± 0.013
CAGTGTCGGG	0.9984 ± 0.0085
CAGTGTCTGC	0.9726 ± 0.0016
CAGTGTGGTT	1.11 ± 0.24
CAGTGTGTGG	0.9696 ± 0.0024
CAGTTAGACA	0.99 ± 0.081
CAGTTATGAC	0.987 ± 0.011
CAGTTCACCT	1.082 ± 0.0063
CAGTTCGTTT	0.9845 ± 0.0063
CAGTTGGGAC	1 ± 0.054
CAGTTGTGTG	0.994 ± 0.034
CAGTTGTTTT	1.02 ± 0.034
CAGTTTAATG	1.014 ± 0.0015
CAGTTTAGCT	1.02 ± 0.015
CAGTTTGTGG	0.9917 ± 0.0018

Sequence	switch fluorescence ratio
CAGTTTGTTG	0.973 ± 0.037
CAGTTTTACA	1.05 ± 0.016
CATAAAAACT	1.06 ± 0.017
CATAAGGGGA	0.994 ± 0.038
CATACAAGGG	1.019 ± 0.0029
CATACAATGC	2.02 ± 0.11
CATACACATT	1.06 ± 0.048
CATACCCTTG	1.01 ± 0.037
CATACGAAGT	1.02 ± 0.068
CATACGGGTA	1.042 ± 0.00018
CATACTAACG	1.33 ± 0.062
CATAGATGGA	1.03 ± 0.036
CATAGATGGG	1.01 ± 0.015
CATAGCAAGG	1.66 ± 0.099
CATAGGAACG	0.955 ± 0.045
CATAGGATGG	0.947 ± 0.025
CATAGGGGAC	0.978 ± 0.066
CATAGGGGTA	1.01 ± 0.04
CATAGGGTTT	1.04 ± 0.047
CATAGGTACA	1.089 ± 0.0035
CATAGGTCGG	0.974 ± 0.021
CATAGGTTAT	0.993 ± 0.048

Sequence	switch fluorescence ratio
CATATACATT	1.056 ± 0.0039
CATATATTCT	0.977 ± 0.033
CATATGATCG	0.961 ± 0.025
CATATGGCTT	1.02 ± 0.023
CATATGGGGA	0.982 ± 0.011
CATATTGAAT	1.01 ± 0.02
CATATTGGGA	0.996 ± 0.032
CATCAAAAAT	1.29 ± 0.3
CATCAAGGGA	1.02 ± 0.045
CATCAGTTGA	1.02 ± 0.018
CATCCACGTA	1.2 ± 0.083
CATCCTTGGA	0.996 ± 0.012
CATCGAGGAC	1.06 ± 0.072
CATCGATTGC	1.03 ± 0.013
CATCGGAGGA	1.02 ± 0.025
CATCGGGGGG	1 ± 0.02
CATCGGTATA	1.06 ± 0.017
CATCTAAGGC	1.07 ± 0.049
CATCTAGTGC	1.045 ± 0.0031
CATCTATGGT	0.992 ± 0.01
CATCTCCGGT	1.13 ± 0.0087
CATCTGATGC	1.08 ± 0.015

Sequence	switch fluorescence ratio
CATCTGATTA	0.98832 ± 0.00039
CATCTTAGCT	1.035 ± 0.0054
CATCTTTGAA	1.05 ± 0.017
CATGAAAGAC	1.05 ± 0.041
CATGATAGTT	0.997 ± 0.017
CATGATTGCG	0.985 ± 0.024
CATGATTTGA	1.011 ± 0.0092
CATGCCATCC	1.16 ± 0.051
CATGCCGGGA	1.22 ± 0.38
CATGCGTCGA	1.044 ± 0.0035
CATGCTTGGT	1.013 ± 0.00025
CATGGAGGGG	0.9617 ± 0.0061
CATGGATACA	0.978 ± 0.052
CATGGATAGG	1.011 ± 0.008
CATGGCCACC	1.015 ± 0.0078
CATGGCTAGT	1 ± 0.011
CATGGGAAGA	0.9755 ± 0.004
CATGGGATGC	1.08 ± 0.1
CATGGGTCCT	1.04 ± 0.033

Source: the supplement of paper PMC10126150
